{"source": "patent US20090023646A1", "about": "“GHRH analogues” (Centre Hospitalier de L'Universite de Montreal (CHUM), priority 2002, published 2009)", "key": {"rat GHRH receptor": {"biological_target": "T1, rat GHRH receptor (rat, UniProt Q02644 23-464)", "T1 construct": "whole, on cells; Native tissue membrane preparation; In the in vivo study it is the receptor on rat pituitary somatotrophs; also called rat pituitary GHRH receptor", "T1 sequence (looked up)": "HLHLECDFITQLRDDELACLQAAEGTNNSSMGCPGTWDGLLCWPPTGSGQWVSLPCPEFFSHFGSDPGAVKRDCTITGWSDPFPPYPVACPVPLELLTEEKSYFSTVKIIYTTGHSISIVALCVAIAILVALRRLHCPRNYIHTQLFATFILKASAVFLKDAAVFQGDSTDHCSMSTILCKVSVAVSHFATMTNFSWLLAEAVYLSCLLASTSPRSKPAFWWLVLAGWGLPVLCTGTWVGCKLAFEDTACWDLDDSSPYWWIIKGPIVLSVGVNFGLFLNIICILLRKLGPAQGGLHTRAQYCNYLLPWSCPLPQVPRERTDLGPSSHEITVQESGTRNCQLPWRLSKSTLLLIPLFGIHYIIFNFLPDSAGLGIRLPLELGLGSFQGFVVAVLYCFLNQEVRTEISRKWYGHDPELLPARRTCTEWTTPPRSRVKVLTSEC", "experiment": "competition with [125I-Tyr10]hGHRH(1-44)-NH2, rat anterior pituitary membrane preparations"}, "human GHRH receptor [1]": {"biological_target": "T2, human GHRH receptor (human, UniProt Q02643 23-423)", "T2 construct": "whole, on cells; Assayed in BHK cell membrane preparations (25 ug protein per tube), not on intact cells; also called hGHRH-R; hGHRH receptor", "T2 sequence (looked up)": "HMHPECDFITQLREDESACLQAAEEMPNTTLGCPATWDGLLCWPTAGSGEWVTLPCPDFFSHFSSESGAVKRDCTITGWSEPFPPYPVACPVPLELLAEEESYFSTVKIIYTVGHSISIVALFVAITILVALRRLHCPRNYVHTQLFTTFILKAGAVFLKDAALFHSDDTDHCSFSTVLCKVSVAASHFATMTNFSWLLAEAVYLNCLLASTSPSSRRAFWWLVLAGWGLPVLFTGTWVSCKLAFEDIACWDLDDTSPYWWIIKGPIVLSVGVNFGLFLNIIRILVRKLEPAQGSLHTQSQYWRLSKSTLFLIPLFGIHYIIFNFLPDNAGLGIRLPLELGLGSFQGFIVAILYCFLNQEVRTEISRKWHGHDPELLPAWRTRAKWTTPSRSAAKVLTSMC", "experiment": "competition with [125I-Tyr10]hGHRH(1-44)NH2, BHK cell membrane preparations expressing the human GHRH receptor", "method": "(§1) Incubation was carried out at equilibrium (23° C., 60 min) and stopped by centrifugation (12,000 g, 5 min, at 4° C.). The radioactivity content in pellets was determined by gamma counting. […] The Ligand computerized program was used to analyze competition curves of GHRH analogues reported in Tables 2 and 3 and to determine their IC₅₀ (Gaudreau P. et al. (1992) J Med Chem, 35: 1864-1869).\n(§2) IC₅₀ is the concentration of peptide inhibiting 50% of ¹²⁵I-GHRH specific binding as determined by the LIGAND program for analysis of competition curves."}, "human GHRH receptor [2]": {"biological_target": "T2, human GHRH receptor", "experiment": "competition with [125I-Tyr10]hGHRH(1-44)NH2, BHK cell membrane preparations expressing the human GHRH receptor", "method": "as §1, §2", "remark": "listed apart in the source"}, "human GHRH receptor [3]": {"biological_target": "T2, human GHRH receptor", "experiment": "competition with [125I-Tyr10]hGHRH(1-44)NH2, BHK cell membrane preparations expressing the human GHRH receptor (reference peptide; its IC50 is not given)", "method": "as §1, §2"}}, "note": "Read-outs that look alike come from different tables or passages of the source. Square brackets hold non-standard residues; d marks the D form. Ends that are not written are not given here.", "data": [{"binder": "Y[dA]DAIFTASYRKVLAQLSARKKLQDIMSR-NH2 (N-terminus assumed; SMILES CC[C@H](C)[C@H](NC(=O)[C@H](C)NC(=O)[C@H](CC(=O)O)NC(=O)[C@@H](C)NC(=O)[C@@H](N)Cc1ccc(O)cc1)C(=O)N[C@@H](Cc1ccccc1)C(=O)N[C@H](C(=O)N[C@@H](C)C(=O)N[C@@H](CO)C(=O)N[C@@H](Cc1ccc(O)cc1)C(=O)N[C@@H](CCCNC(=N)N)C(=O)N[C@@H](CCCCN)C(=O)N[C@H](C(=O)N[C@@H](CC(C)C)C(=O)N[C@@H](C)C(=O)N[C@@H](CCC(N)=O)C(=O)N[C@@H](CC(C)C)C(=O)N[C@@H](CO)C(=O)N[C@@H](C)C(=O)N[C@@H](CCCNC(=N)N)C(=O)N[C@@H](CCCCN)C(=O)N[C@@H](CCCCN)C(=O)N[C@@H](CC(C)C)C(=O)N[C@@H](CCC(N)=O)C(=O)N[C@@H](CC(=O)O)C(=O)N[C@H](C(=O)N[C@@H](CCSC)C(=O)N[C@@H](CO)C(=O)N[C@@H](CCCNC(=N)N)C(N)=O)[C@@H](C)CC)C(C)C)[C@@H](C)O, Synthetic 29-residue amide; also called GHRH analogue #1; No. 1)", "note": "[[D-Ala2, Ala8, Ala15, Lys22] hGHRH(1-29)-NH2]", "values": [{"measurement": "relative binding affinity in rat anterior pituitary (compared to hGHRH(1-29)-NH2)", "setting": "rat GHRH receptor", "result": "13.3 fold against hGHRH(1-29)-NH2"}, {"measurement": "IC50", "setting": "human GHRH receptor [1]", "result": 0.033, "unit": "nM"}, {"measurement": "relative binding affinity (R1) in comparison with hGHRH(1-29)NH2", "setting": "human GHRH receptor [1]", "result": "499 ratio IC50 of hGHRH(1-29)-NH2 / IC50 analogue"}]}, {"binder": "Y[dA]DAIFTNS[dY]RKVLGQLSARKKLQDIMSR-NH2 (N-terminus assumed; SMILES CC[C@H](C)[C@H](NC(=O)[C@H](C)NC(=O)[C@H](CC(=O)O)NC(=O)[C@@H](C)NC(=O)[C@@H](N)Cc1ccc(O)cc1)C(=O)N[C@@H](Cc1ccccc1)C(=O)N[C@H](C(=O)N[C@@H](CC(N)=O)C(=O)N[C@@H](CO)C(=O)N[C@H](Cc1ccc(O)cc1)C(=O)N[C@@H](CCCNC(=N)N)C(=O)N[C@@H](CCCCN)C(=O)N[C@H](C(=O)N[C@@H](CC(C)C)C(=O)NCC(=O)N[C@@H](CCC(N)=O)C(=O)N[C@@H](CC(C)C)C(=O)N[C@@H](CO)C(=O)N[C@@H](C)C(=O)N[C@@H](CCCNC(=N)N)C(=O)N[C@@H](CCCCN)C(=O)N[C@@H](CCCCN)C(=O)N[C@@H](CC(C)C)C(=O)N[C@@H](CCC(N)=O)C(=O)N[C@@H](CC(=O)O)C(=O)N[C@H](C(=O)N[C@@H](CCSC)C(=O)N[C@@H](CO)C(=O)N[C@@H](CCCNC(=N)N)C(N)=O)[C@@H](C)CC)C(C)C)[C@@H](C)O, Synthetic 29-residue amide; also called GHRH analogue #3; No. 3)", "note": "[[D-Ala2, D-Tyr10, Lys22] hGHRH(1-29)-NH2]", "values": [{"measurement": "relative binding affinity in rat anterior pituitary (compared to hGHRH(1-29)-NH2)", "setting": "rat GHRH receptor", "result": "4.9 fold against hGHRH(1-29)-NH2"}, {"measurement": "IC50", "setting": "human GHRH receptor [1]", "result": 0.0063, "unit": "nM"}, {"measurement": "relative binding affinity (R1) in comparison with hGHRH(1-29)NH2", "setting": "human GHRH receptor [1]", "result": "239 ratio IC50 of hGHRH(1-29)-NH2 / IC50 analogue"}]}, {"binder": "YADAIFTAAYRKVLAQLSARKALQDIMSR-NH2 (Synthetic 29-residue amide; also called GHRH analogue #2; No. 2)", "note": "[[Ala8, Ala9, Ala15, Ala22] hGHRH(1-29)-NH2]", "values": [{"measurement": "relative binding affinity in rat anterior pituitary (compared to hGHRH(1-29)-NH2)", "setting": "rat GHRH receptor", "result": "7.74 fold against hGHRH(1-29)-NH2"}, {"measurement": "IC50", "setting": "human GHRH receptor [1]", "result": 0.77, "unit": "nM"}, {"measurement": "relative binding affinity (R1) in comparison with hGHRH(1-29)NH2", "setting": "human GHRH receptor [1]", "result": "3.7 ratio IC50 of hGHRH(1-29)-NH2 / IC50 analogue"}]}, {"binder": "Y[dA]DAIFTNS[dY]RKVL[dA]QLSARKKLQDIMSR-NH2 (also: acetate salt, also called GHRH analogue #5; human GHRH analogue #5)", "note": "[[D-Ala2, D-Tyr10, D-Ala15, Lys22] hGHRH(1-29)-NH2]", "values": [{"measurement": "relative binding affinity in rat anterior pituitary (compared to hGHRH(1-29)-NH2)", "setting": "rat GHRH receptor", "result": "1.04 fold against hGHRH(1-29)-NH2"}, {"measurement": "IC50", "setting": "human GHRH receptor [2]", "result": 0.0012, "unit": "nM"}, {"measurement": "IC50", "setting": "human GHRH receptor [1]", "result": 0.006, "unit": "nM"}, {"measurement": "relative binding affinity (R1) in comparison with hGHRH(1-29)NH2", "setting": "human GHRH receptor [1]", "result": "939 ratio IC50 of hGHRH(1-29)-NH2 / IC50 analogue"}]}, {"binder": "YADAIFTNSYRKVLGQLSARKLLQDIMSR-NH2 (also called hGHRH(1-29)NH2; hGHRH(1-29)-NH2)", "note": "[human GHRH(1-29)NH2]", "values": [{"measurement": "binding result", "setting": "human GHRH receptor [3]", "result": "binds"}]}, {"binder": "Y[dA]DAIFTAS[dY]RKVLAQLSAR[dK]KLQDIMSR-NH2 (N-terminus assumed; SMILES CC[C@H](C)[C@H](NC(=O)[C@H](C)NC(=O)[C@H](CC(=O)O)NC(=O)[C@@H](C)NC(=O)[C@@H](N)Cc1ccc(O)cc1)C(=O)N[C@@H](Cc1ccccc1)C(=O)N[C@H](C(=O)N[C@@H](C)C(=O)N[C@@H](CO)C(=O)N[C@H](Cc1ccc(O)cc1)C(=O)N[C@@H](CCCNC(=N)N)C(=O)N[C@@H](CCCCN)C(=O)N[C@H](C(=O)N[C@@H](CC(C)C)C(=O)N[C@@H](C)C(=O)N[C@@H](CCC(N)=O)C(=O)N[C@@H](CC(C)C)C(=O)N[C@@H](CO)C(=O)N[C@@H](C)C(=O)N[C@@H](CCCNC(=N)N)C(=O)N[C@H](CCCCN)C(=O)N[C@@H](CCCCN)C(=O)N[C@@H](CC(C)C)C(=O)N[C@@H](CCC(N)=O)C(=O)N[C@@H](CC(=O)O)C(=O)N[C@H](C(=O)N[C@@H](CCSC)C(=O)N[C@@H](CO)C(=O)N[C@@H](CCCNC(=N)N)C(N)=O)[C@@H](C)CC)C(C)C)[C@@H](C)O, Synthetic 29-residue amide; also called GHRH analogue #4; No. 4)", "note": "[[D-Ala2, Ala8, D-Tyr10, Ala15, D-Lys21, Lys22] hGHRH(1-29)-NH2]", "values": [{"measurement": "relative binding affinity in rat anterior pituitary (compared to hGHRH(1-29)-NH2)", "setting": "rat GHRH receptor", "result": "5 fold against hGHRH(1-29)-NH2"}, {"measurement": "IC50", "setting": "human GHRH receptor [1]", "result": 37, "unit": "nM"}, {"measurement": "relative binding affinity (R1) in comparison with hGHRH(1-29)NH2", "setting": "human GHRH receptor [1]", "result": "0.05 ratio IC50 of hGHRH(1-29)-NH2 / IC50 analogue"}]}]}
